# Results taken from article PMC7895427, “A stapled peptide mimetic of the CtIP tetramerization motif interferes with double-strand break repair and replication fork protection” (Science Advances, 2021).
# Numbering of substitutions follows the chain as printed. Names may count otherwise. Positions of bridges follow the written chain, without caps; N, C: chain ends. Non-standard residues stand in square brackets, D forms with d. *: point of attachment. FITC = O=C1OC2(c3ccc(O)cc3Oc3cc(O)ccc32)c2ccc(NC(=S)*)cc21; R8 = C=CCCCCCC[C@@](C)(N)C(=O)O; S5 = C=CCCC[C@](C)(N)C(=O)O
# B1: full-length recombinant CtIP wild type (natural protein, human, UniProt Q99708 1-897, looked up)
# chain: MNISGSSCGSPNSADTSSDFKDLWTKLKECHDREVQGLQVKVTKLKQERILDAQRLEEFFTKNQQLREQQKVLHETIKVLEDRLRAGLCDRCAVTEEHMRKKQQEFENIRQQNLKLITELMNERNTLQEENKKLSEQLQQKIENDQQHQAAELECEEDVIPDSPITAFSFSGVNRLRRKENPHVRYIEQTHTKLEHSVCANEMRKVSKSSTHPQHNPNENEILVADTYDQSQSPMAKAHGTSSYTPDKSSFNLATVVAETLGLGVQEESETQGPMSPLGDELYHCLEGNHKKQPFEESTRNTEDSLRFSDSTSKTPPQEELPTRVSSPVFGATSSIKSGLDLNTSLSPSLLQPGKKKHLKTLPFSNTCISRLEKTRSKSEDSALFTHHSLGSEVNKIIIQSSNKQILINKNISESLGEQNRTEYGKDSNTDKHLEPLKSLGGRTSKRKKTEEESEHEVSCPQASFDKENAFPFPMDNQFSMNGDCVMDKPLDLSDRFSAIQRQEKSQGSETSKNKFRQVTLYEALKTIPKGFSSSRKASDGNCTLPKDSPGEPCSQECIILQPLNKCSPDNKPSLQIKEENAVFKIPLRPRESLETENVLDDIKSAGSHEPIKIQTRSDHGGCELASVLQLNPCRTGKIKSLQNNQDVSFENIQWSIDPGADLSQYKMDVTVIDTKDGSQSKLGGETVDMDCTLVSETVLLKMKKQEQKGEKSSNEERKMNDSLEDMFDRTTHEEYESCLADSFSQAADEEEELSTATKKLHTHGDKQDKVKQKAFVEPYFKGDERETSLQNFPHIEVVRKKEERRKLLGHTCKECEIYYADMPAEEREKKLASCSRHRFRYIPPNTPENFWEVGFPSTQTCMERGYIKEDLDPCPRPKRRQPYNAIFSPKGKEQKT
# notes: human CtIP, full length (amino acids 1 to 897); also called CtIP-wt
# B2: full-length recombinant CtIP-L27E (natural protein, human, UniProt Q99708 1-897, looked up)
# chain: B1 chain with L27E
# notes: human CtIP, full length (amino acids 1 to 897), with L27E; L27E was introduced by site-directed mutagenesis of the 3xFLAG-CtIP-wt expression vector
# B3: CtIP-NTD^32–145 (domain or fragment, human, UniProt Q99708 32-145, looked up)
# chain: DREVQGLQVKVTKLKQERILDAQRLEEFFTKNQQLREQQKVLHETIKVLEDRLRAGLCDRCAVTEEHMRKKQQEFENIRQQNLKLITELMNERNTLQEENKKLSEQLQQKIEND
# notes: also called N-terminal coiled-coil domain; not shown: His6, N-terminal, cleaved; MBP, N-terminal, cleaved
# B4: CtIP-NTD^(18–145, L27E) (domain or fragment, human, UniProt Q99708 18-145, looked up)
# chain: SDFKDLWTKEKECHDREVQGLQVKVTKLKQERILDAQRLEEFFTKNQQLREQQKVLHETIKVLEDRLRAGLCDRCAVTEEHMRKKQQEFENIRQQNLKLITELMNERNTLQEENKKLSEQLQQKIEND
# notes: not shown: His6, N-terminal, cleaved; MBP, N-terminal, cleaved
# B5: CtIP-NTD^18–145 (domain or fragment, human, UniProt Q99708 18-145, looked up)
# chain: B4 chain with E10L
# notes: as for B4
# How the values were obtained:
# [1] = target: the molecule itself; assay: cell-based or functional assay
# [2] = target: the molecule itself; assay: SEC-MALS; full-length CtIP 10 μM with 0, 20 or 250 μM peptide; 1 hour on ice, then 30 min at RT; Superose 6 10/300 in 20 mM tris (pH 8.0), 200 mM NaCl, 0.5 mM TCEP
# [3] = target: the molecule itself; assay: cross-linking; 1 or 2 μg recombinant protein with or without peptide in PBS, 30 min at RT; 100 μM disuccinimidyl suberate, 30 min at RT; SDS-PAGE and staining
# [4] = target: B5; assay: fluorescence polarisation; FITC-labeled peptide (1 mg/ml stock diluted 1:10,000) mixed with serially diluted CtIP-NTD; 20 mM tris (pH 8.0), 150 mM NaCl; 10 min at RT; nonlinear regression with Hill slope; settings: both partners purified
binder,measurement,setting,value
B1,HR frequency (percentage of GFP-positive U2OS EGFP-HR reporter cells after I-SceI) with 10 μM SP^18–28 for 24 hours,[1],~3 fold decrease
same,stoichiometry N,[2],4
B2,stoichiometry N,[2],2
B3,stoichiometry N,[3],2
{FITC}-S[R8]FKDLWT[S5]LKECH-NH2 (staple 2-9) [FITC-labeled SP^18–31 (hydrocarbon-stapled peptide spanning the entire CtIP tetramerization motif)],fold higher Kd than that of SP^18–28 on the same target,[4],~100 fold
B4,stoichiometry N,[3],2
B5,stoichiometry N,[3],4
{FITC}-S[R8]FKDLWT[S5]LK-NH2 (staple 2-9) [FITC-labeled SP^18–28 (hydrocarbon-stapled peptide of CtIP residues 18 to 28)],Kd,[4],209 nM
